Experimental data reported in the supplement of paper PMC10567573.

B1: ARL6IP1 (parent)
chain: YLDPSVLSGVSCFVMFLCLADYLV
B2: MIA2 (parent)
chain: SVIEPVQESSFRSRKIAVEDENDL

Variants of: B1
Experiment: protein stability index of a GFP-peptide fusion (GPS, HEK-293T) (PSI 1-6); higher = more stable
Details: c terminus: a fixed tail appended
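Also: lentivirally expressed fusions sorted by FACS into six bins by GFP to DsRed ratio, PSI derived from sequencing read proportions per bin multiplied by bin number.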

Variant	protein stability index
YLDPSVLSGVSCFVMFLCLYDYLV	3.24
YLDPSVLSGVSCFVMFLCLADYLF	2.97
YLDPSVLSGVSCFVMFLCLADYLL	3.97
YLDPSVLSGVSCFVMFLCLADYLS	2.53
YLDPSVLSGVSCFVMFLCLADYLC	3.6
YLDPSVLSGVSCFVMFLCLADYLA	2.78
YLDPSVLSGVSCFVMFLCLADYLY	2.16
YLDPSVLSGVSCFVMFLCLADYLM	3.77
YLDPSVLSGVSCFVMFLCLADYLI	3.52
YLDPSVLSGVSCFVMFLCLADVLV	2.14
YLDPSVLSGVSCFVMFLCLADQLV	3.52
YLDPSVLSGVSCFVMFLCLADHLV	2.31
YLDPSVLSGVSCFVMFLCLADCLV	3.08
YLDPSVLSGVSCFVMFLCLADILV	2.44
YLDPSVLSGVSCFVMFLCLADLLV	1.58
YLDPSVLSGVSCFVMFLCLADKLV	3.93
YLDPSVLSGVSCFVMFLCLADSLV	3.94
YLDPSVLSGVSCFVMFLCLADWLV	3.48
YLDPSVLSGVSCFVMFLCLADPLV	2.87
YLDPSVLSGVSCFVMFLCLADNLV	3.07
YLDPSVLSGVSCFVMFLCLADYHV	2.74
YLDPSVLSGVSCFVMFLCLADYGV	2.59
YLDPSVLSGVSCFVMFLCLADYNV	3.21

Variant	protein stability index
YLDPSVLSGVSCFVMFLCLADYCV	3.76
YLDPSVLSGVSCFVMFLCLADYTV	3.08
YLDPSVLSGVSCFVMFLCLADYYV	2.27
YLDPSVLSGVSCFVMFLCLADYWV	2.07
YLDPSVLSGVSCFVMFLCLADYVV	3.07
YLDPSVLSGVSCFVMFLCLADYEV	4.8
YLDPSVLSGVSCFVMFLCLADYMV	2.83
YLDPSVLSGVSCFVMFLCLADYPV	2.39
YLDPSVLSGVSCFVMFLCLADYKV	3.29
YLDPSVLSGVSCFVMFLCLADYQV	2.69
YLDPSVLSGVSCFVMFLCLADYIV	4.16
YLDPSVLSGVSCFVMFLCLAGYLV	3.14
YLDPSVLSGVSCFVMFLCLAVYLV	3.96
YLDPSVLSGVSCFVMFLCLAHYLV	2.6
YLDPSVLSGVSCFVMFLCLAIYLV	3.5
YLDPSVLSGVSCFVMFLCLAAYLV	2.71
YLDPSVLSGVSCFVMFLCLAQYLV	2.58
YLDPSVLSGVSCFVMFLCLATYLV	3.76
YLDPSVLSGVSCFVMFLCLAFYLV	3.29
YLDPSVLSGVSCFVMFLCLAKYLV	1.14
YLDPSVLSGVSCFVMFLCLAYYLV	1.55
YLDPSVLSGVSCFVMFLCLANYLV	2.7

Variants of: B2
Experiment: as above
Details: c terminus: a fixed tail appended

Variant	protein stability index
SHIEPVQESSFRSRKIAVEDENDL	5.51
STIEPVQESSFRSRKIAVEDENDL	5.31
SNIEPVQESSFRSRKIAVEDENDL	5.87
SPIEPVQESSFRSRKIAVEDENDL	5.15
SSIEPVQESSFRSRKIAVEDENDL	5.32
SKIEPVQESSFRSRKIAVEDENDL	5.38
SCIEPVQESSFRSRKIAVEDENDL	5.76
SEIEPVQESSFRSRKIAVEDENDL	5.22
SMIEPVQESSFRSRKIAVEDENDL	5.22
SWIEPVQESSFRSRKIAVEDENDL	5.14
SAIEPVQESSFRSRKIAVEDENDL	5.31
SDIEPVQESSFRSRKIAVEDENDL	5.83
SIIEPVQESSFRSRKIAVEDENDL	4.69
SLIEPVQESSFRSRKIAVEDENDL	5.24
SYIEPVQESSFRSRKIAVEDENDL	5.26
SQIEPVQESSFRSRKIAVEDENDL	5.82
SRIEPVQESSFRSRKIAVEDENDL	5.5
SGIEPVQESSFRSRKIAVEDENDL	5.67
SFIEPVQESSFRSRKIAVEDENDL	4.42
LVIEPVQESSFRSRKIAVEDENDL	4.33
KVIEPVQESSFRSRKIAVEDENDL	5.13
TVIEPVQESSFRSRKIAVEDENDL	5.45
IVIEPVQESSFRSRKIAVEDENDL	3.96
WVIEPVQESSFRSRKIAVEDENDL	4.46
MVIEPVQESSFRSRKIAVEDENDL	4.71

Variant	protein stability index
HVIEPVQESSFRSRKIAVEDENDL	5.52
VVIEPVQESSFRSRKIAVEDENDL	4.33
PVIEPVQESSFRSRKIAVEDENDL	5.59
NVIEPVQESSFRSRKIAVEDENDL	5.69
RVIEPVQESSFRSRKIAVEDENDL	5.32
YVIEPVQESSFRSRKIAVEDENDL	3.12
QVIEPVQESSFRSRKIAVEDENDL	5.39
DVIEPVQESSFRSRKIAVEDENDL	5.68
AVIEPVQESSFRSRKIAVEDENDL	5.01
EVIEPVQESSFRSRKIAVEDENDL	5.28
CVIEPVQESSFRSRKIAVEDENDL	5.53
FVIEPVQESSFRSRKIAVEDENDL	2.93
GVIEPVQESSFRSRKIAVEDENDL	5.17
SVEEPVQESSFRSRKIAVEDENDL	5.61
SVHEPVQESSFRSRKIAVEDENDL	4.67
SVLEPVQESSFRSRKIAVEDENDL	5.59
SVKEPVQESSFRSRKIAVEDENDL	4.92
SVCEPVQESSFRSRKIAVEDENDL	5.5
SVMEPVQESSFRSRKIAVEDENDL	5.44
SVNEPVQESSFRSRKIAVEDENDL	5.61
SVFEPVQESSFRSRKIAVEDENDL	5.32
SVAEPVQESSFRSRKIAVEDENDL	5.71
SVGEPVQESSFRSRKIAVEDENDL	5.73
SVDEPVQESSFRSRKIAVEDENDL	5.9
